Measured values taken from paper PMC2999833.

Experiments:
[1] = biological target: Dok2 pY345 peptide (human); assay: SPR
[2] = biological target: Dok1 pY362 peptide (human); assay: SPR

Kd [1]: 3.5 µM | Kd [2]: 600 nM
Substance: Full-length recombinant His tagged human Nck1 (from UniProt P16333 1-377) (natural protein)
